# Molecular target: T1, rec. human IGF-1R (R&D Systems, 391-GR) (human, UniProt P08069 31-932)
# T1 construct: Bought soluble protein, used as the analyte in SPR; also called rhIGF1R; recombinant human IGF-1R
# Assay: SPR (Biacore T200), ligand immobilised on CM5 chip, rec. human IGF-1R as analyte, 1:1 model
# Procedure: The binding properties were characterized by SPR using a Biacore T200 instrument at 25° C. […] The analyte concentration ranges were adapted to the individual interaction and ranged from 1000-3.9 nM (IGF-1R). […] Kinetic rate constants and KD were calculated by fitting double-referenced sensorgrams to a 1:1 binding model.
# A direct binding assay was performed. […] The resulting sensorgrams were fitted to a 1:1 interaction model to calculate the equilibrium dissociation constants (KD).
# T1 sequence (P08069 31-932 limits assumed): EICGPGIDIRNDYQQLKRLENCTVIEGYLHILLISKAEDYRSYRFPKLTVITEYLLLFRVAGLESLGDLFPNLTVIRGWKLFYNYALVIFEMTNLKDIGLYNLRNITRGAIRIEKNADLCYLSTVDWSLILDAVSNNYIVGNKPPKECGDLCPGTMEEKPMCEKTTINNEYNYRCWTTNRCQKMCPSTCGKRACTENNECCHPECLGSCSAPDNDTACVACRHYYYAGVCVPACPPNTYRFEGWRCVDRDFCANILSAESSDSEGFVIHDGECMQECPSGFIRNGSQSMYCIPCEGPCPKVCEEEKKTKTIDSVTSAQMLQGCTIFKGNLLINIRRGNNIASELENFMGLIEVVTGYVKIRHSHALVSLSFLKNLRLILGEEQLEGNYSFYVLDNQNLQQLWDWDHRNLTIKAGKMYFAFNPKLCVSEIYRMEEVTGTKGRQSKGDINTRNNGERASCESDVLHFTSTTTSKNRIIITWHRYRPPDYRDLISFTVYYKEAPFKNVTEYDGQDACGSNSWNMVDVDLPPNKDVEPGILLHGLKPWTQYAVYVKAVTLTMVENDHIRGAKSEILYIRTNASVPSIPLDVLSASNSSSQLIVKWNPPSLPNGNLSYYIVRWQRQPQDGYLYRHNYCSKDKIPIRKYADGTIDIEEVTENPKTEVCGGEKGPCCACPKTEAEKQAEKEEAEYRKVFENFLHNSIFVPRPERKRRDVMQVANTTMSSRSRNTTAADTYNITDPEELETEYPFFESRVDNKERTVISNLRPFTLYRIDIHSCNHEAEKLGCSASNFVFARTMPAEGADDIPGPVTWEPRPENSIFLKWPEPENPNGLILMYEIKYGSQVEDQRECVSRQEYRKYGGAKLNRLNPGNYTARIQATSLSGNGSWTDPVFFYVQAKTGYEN
binder,measurement,value
"hIGF-1-Ea-Fc_mut 13/2_A (Fc fusion, Modified human IGF-1-Ea precursor joined by hinge 1 to a hIgG1 LALA Fc) TLCGAELVDALQFVCGDRGFYFNKPTGYGSSSQAAPQTSIVDECCFRSCDLRRLEMYCAPLKPAVQAQQHTDMPKTQKEVHLKNASRGSAGNKNYQMCPPCPAPEAAGGPSVFLFPPKPKDTLMISRTPEVTCVVVDVSHEDPEVKFNWYVDGVEVHNAKTKPREEQYNSTYRVVSVLTVLHQDWLNGKEYKCKVSNKALPAPIEKTISKAKGQPREPQVYTLPPSREEMTKNQVSLTCLVKGFYPSDIAVEWESNGQPENNYKTTPPVLDSDGSFFLYSKLTVDKSRWQQGNVFSCSVMHEALHNHYTQKSLSLSPGK",binding result,binds
